In paper PMC8187606, “Biophysical and structural studies reveal marginal stability of a crucial hydrocarbon biosynthetic enzyme acyl ACP reductase” (Scientific Reports, 2021):

Target: the molecule itself
Test: SEC; Superdex 200 Increase 10/300 GL; AAR 1.5 mg/mL; 50 mM Tris, 100 mM NaCl, 1 mM DTT, pH 7.4; without GdnHCl; oligomer of unstated size

B1: Acyl-ACP reductase (AAR) from Synechococcus elongatus PCC 7942, 6-His tagged recombinant (enzyme)
chain: MFGLIGHLTSLEQARDVSRRMGYDEYADQGLEFWSSAPPQIVDEITVTSATGKVIHGRYIESCFLPEMLAARRFKTATRKVLNAMSHAQKHGIDISALGGFTSIIFENFDLASLRQVRDTTLEFERFTTGNTHTAYVICRQVEAAAKTLGIDITQATVAVVGATGDIGSAVCRWLDLKLGVGDLILTARNQERLDNLQAELGRGKILPLEAALPEADFIVWVASMPQGVVIDPATLKQPCVLIDGGYPKNLGSKVQGEGIYVLNGGVVEHCFDIDWQIMSAAEMARPERQMFACFAEAMLLEFEGWHTNFSWGRNQITIEKMEAIGEASVRHGFQPLALAI
notes: Acyl-ACP reductase (AAR), Synechococcus elongatus PCC 7942, codon-optimized aar gene in pQE30; domains described as NTD 1-130, mid-domain 131-264, CTD 265-341; also called Acyl-acyl carrier protein reductase; source: E. coli M15 (pQE30AAR), purified from the soluble fraction (Ni-NTA, gel filtration)
B1: binds.
